Assay results: patent US20090092640A1

Target: mutant murine LIGHT (a.a. 79-82, EKLI, deleted), expressed on the cell surface (murine) (UniProt Q9QYH9)
Test: cell-based or functional assay

Sequence of mutant murine LIGHT (a.a. 79-82, EKLI, deleted), expressed on the cell surface (murine) (Q9QYH9 other isoform, or with tags, fused parts or gaps mutant limits assumed): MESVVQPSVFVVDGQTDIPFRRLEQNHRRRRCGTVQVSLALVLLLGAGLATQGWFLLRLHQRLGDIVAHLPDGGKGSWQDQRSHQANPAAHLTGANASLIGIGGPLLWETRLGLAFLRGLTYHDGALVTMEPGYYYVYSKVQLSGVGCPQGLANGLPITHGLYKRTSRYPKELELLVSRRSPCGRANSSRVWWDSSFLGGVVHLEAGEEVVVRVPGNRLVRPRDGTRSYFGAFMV
Sequence of LTβR-human Ig (Fc fusion) (P50284 31-223): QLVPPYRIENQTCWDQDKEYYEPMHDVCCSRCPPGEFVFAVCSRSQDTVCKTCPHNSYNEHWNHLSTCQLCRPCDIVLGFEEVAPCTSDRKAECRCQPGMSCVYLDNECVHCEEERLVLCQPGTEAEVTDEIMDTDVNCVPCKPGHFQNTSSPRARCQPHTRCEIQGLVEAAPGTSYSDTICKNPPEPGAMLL

## LTβR-human Ig (Fc fusion)
  Incidence of tumor growth (Percentage), 10^6 Ag104L^d-LIGHT^m in C3B6F1 mice treated with LTβR-Ig: 100 % (6/6 mice)
